Data as given in patent US11278600B2, “Human alpha-galactosidase variants” (Codexis, Inc., priority 2014, dated 2022).
Where a chain is given by its changes, count along the chain named.

B1: 296 (protein)
chain: LDNGLARTPTMGWLHWERFMCNLDCQEEPDSCISEKLFMEMAELMVSEGWKDAGYEYLCIDDCWMTPQRDSEGRLQADPQRFPHGIRQLANYVHSKGLKLGIYADVGNKTCAGFPGSFGYYDIDAQTFADWGVDLLKFDGCYCDSLENLADGYKHMSLALNRTGRSIVYSCEWPLYMWPFQKPNYTEIRQYCNHWRNFADIDDSWASIKSILDWTSRNQERIVDVAGPGGWNDPDMLVIGNFGLSWNQQVTQMALWAIMAAPLFMSNDLRHISPQAKALLQDKDVIAINQDPLGKQGYQLRQGDNFEVWERPLSGDAWAVAIINRQEIGGPRSYTIPVASLGGGVACNPGCFITQLLPVKRKLGFYNWTSRLKSHINPTGTVLLQLENTMQMSLKDLL
modifications: Synthetic Polypeptide sequence of Variant No. 296 of mature Human GLA
B2: 298 (protein)
chain: B1 chain with T66A, N247D, G343K, K362Q
modifications: Synthetic Polypeptide sequence of Variant No. 298 of mature Human GLA
B3: 357 (protein)
chain: LDNGLARTPTMGWLHWERFMCNLDCQEEPDSCISEKLFMEMAERMVSEGWKDAGYEYLCIDDCWMAPQRDSEGRLQADPQRFPHGIRQLANYVHSKGLKFGIYADVGNKTCAGFPGSFGYYDIDAQTFADWGVDLLKFDGCYCDSLENLADGYKHMSLALNRTGRSIVYSCEWPLYMWPFQKPNYTEIRQYCNHWRNFADIDDSWASIKSILDWTSFNQETIVDVAGPGGWNDPDMLVIGNFGLSWDQQVTQMALWAIMAAPLFMSNDLRHISPQAKALLQDKDVIAINQDPLGKQGYQLRKGDNFEVWERPLSGLAWAVAVINRQEIGGPRSYTIAVASLGKGVACNPACFITQLLPVKRKLGFYNWTSRLKSHVNPTGTVLLQLENTMQMSLKDLL
modifications: Synthetic Polypeptide sequence of Variant No. 357 of mature Human GLA
B4: 297 (protein)
chain: B3 chain with R44L, F100L, F217R, T221R, G230V, V322I, T369S, V376I
modifications: Synthetic Polypeptide sequence of Variant No. 297 of mature Human GLA
B5: 358 (protein)
chain: B3 chain with V322I, V376I
modifications: Synthetic Polypeptide sequence of Variant No. 358 of mature Human GLA
B6: 359 (protein)
chain: B3 chain with Q181I
modifications: Synthetic Polypeptide sequence of Variant No. 359 of mature Human GLA
B7: 299 (protein)
chain: B1 chain with T66A, N247D, Q302K, D316L, P337A, N367T, L397F
modifications: Synthetic Polypeptide sequence of Variant No. 299 of mature Human GLA

Columns and labels:
Format in all cases: biochemical
[1] = HTP-analysis of yeast culture supernatants, no challenge (MUGal hydrolysis); conditions: activity of the variant/activity of Rd3BB (SEQ ID NO: 13), yeast culture supernatant
How it was run: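 GLA variants were expressed in INVSc1 yeast grown in SD-Ura broth with glucose at 30° C., and culture supernatants were collected after 66-84 h. Supernatant was mixed with McIlvaine buffer pH 4.8 and MUGal (2 mM stock) in 50 mM citrate, 200 mM KCl, pH 4.6, incubated at 37° C. for 30-180 minutes, then quenched with sodium carbonate.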

[2] = HTP-analysis of supernatants pretreated with acid (MUGal hydrolysis); conditions: challenge at pH 4.0; activity of the variant/activity of Rd3BB (SEQ ID NO: 13); yeast culture supernatant
How it was run: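 GLA variants were secreted from INVSc1 yeast grown 66-84 h at 30° C. in SD-Ura with 2% glucose; supernatants were mixed with McIlvaine buffer pH 3.3-4.3 and held at 37° C. for 1-3 h. Residual activity on MUGal at pH 4.8 was then measured by fluorescence.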

[3] = HTP-analysis of supernatants pretreated with base (MUGal hydrolysis); conditions: challenge at pH 8.2; activity of the variant/activity of Rd3BB (SEQ ID NO: 13); yeast culture supernatant
How it was run: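 GLA variants secreted from yeast INVSc1; culture supernatants pre-incubated with McIlvaine buffer pH 7.0–8.2 or 200 mM bicarbonate pH 9.1–9.7 at 37° C. for 1–18 h. Residual activity: MUGal (4 mM stock) hydrolysis at pH 4.3–4.8, 37° C., 30–180 min, carbonate quench; fluorescence Ex 355/Em 448 nm.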

[4] = HTP-analysis of supernatants pretreated with bovine serum (MUGal hydrolysis); conditions: activity of the variant/activity of Rd3BB (SEQ ID NO: 13), yeast culture supernatant
How it was run: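 Yeast INVSc1 culture supernatants containing secreted GLA variants were mixed with bovine serum (20:80) and held 1 h at 37° C. Serum-treated samples then reacted with MUGal (4 mM stock) in citrate/McIlvaine buffer (pH 4.3/4.8) for 180 min at 37° C., were quenched with sodium carbonate, and read by fluorescence (Ex 355, Em 448 nm).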

Molecule | Relative Activity of GLA Variants After No Challenge (NC) [1] | Relative Activity of GLA Variants After Challenge at pH 4.0 [2] | Relative Activity of GLA Variants After Challenge at pH 8.2 [3] | Relative Activity of GLA Variants After Challenge with Serum [4]
B1 | + (+ = 0.5 to 1.5 relative activity over Rd3BB (SEQ ID NO: 13)) | − (− = <0.5 relative activity to Rd3BB (SEQ ID NO: 13)) | − (− = <0.5 relative activity to Rd3BB (SEQ ID NO: 13)) | + (+ = 0.5 to 1.5 relative activity over Rd3BB (SEQ ID NO: 13))
B2 | ++ (++ = >1.5 to 2.5 relative activity over Rd3BB (SEQ ID NO: 13)) | +++ (+++ = >2.5 relative activity over Rd3BB (SEQ ID NO: 13)) | +++ (+++ = >2.5 relative activity over Rd3BB (SEQ ID NO: 13)) | +++ (+++ = >2.5 relative activity over Rd3BB (SEQ ID NO: 13))
B3 | + (+ = 0.5 to 1.5 relative activity over Rd3BB (SEQ ID NO: 13)) | ++ (++ = >1.5 to 2.5 relative activity over Rd3BB (SEQ ID NO: 13)) | +++ (+++ = >2.5 relative activity over Rd3BB (SEQ ID NO: 13)) | + (+ = 0.5 to 1.5 relative activity over Rd3BB (SEQ ID NO: 13))
B4 | − (− = <0.5 relative activity to Rd3BB (SEQ ID NO: 13)) | − (− = <0.5 relative activity to Rd3BB (SEQ ID NO: 13)) | − (− = <0.5 relative activity to Rd3BB (SEQ ID NO: 13)) | − (− = <0.5 relative activity to Rd3BB (SEQ ID NO: 13))
B5 | + (+ = 0.5 to 1.5 relative activity over Rd3BB (SEQ ID NO: 13)) | + (+ = 0.5 to 1.5 relative activity over Rd3BB (SEQ ID NO: 13)) | ++ (++ = >1.5 to 2.5 relative activity over Rd3BB (SEQ ID NO: 13)) | + (+ = 0.5 to 1.5 relative activity over Rd3BB (SEQ ID NO: 13))
B6 | + (+ = 0.5 to 1.5 relative activity over Rd3BB (SEQ ID NO: 13)) | + (+ = 0.5 to 1.5 relative activity over Rd3BB (SEQ ID NO: 13)) | +++ (+++ = >2.5 relative activity over Rd3BB (SEQ ID NO: 13)) | + (+ = 0.5 to 1.5 relative activity over Rd3BB (SEQ ID NO: 13))
B7 | + (+ = 0.5 to 1.5 relative activity over Rd3BB (SEQ ID NO: 13)) | − (− = <0.5 relative activity to Rd3BB (SEQ ID NO: 13)) | − (− = <0.5 relative activity to Rd3BB (SEQ ID NO: 13)) | − (− = <0.5 relative activity to Rd3BB (SEQ ID NO: 13))
